In the experiment the target is GLP-1 receptor. The experiment can be described thus: cell-based or functional assay.

“And” between values parts separate entries of the source, which are not always exact repeats. Identical values can stand only once.

For “Gly^8-GLP-1-IgG1 (from UniProt P01857 99-330) (Fc fusion)”, the In Vitro Activity (% of Val^8-GLP-1) (% of Val^8-GLP-1) came to 3.3.
Turning to “Val^8-Glu^22-Val^25-Ile^33-GLP-1(7-37)OH (peptide)”, the GLP-1 Receptor Activation (fold of GLP-1(7-37)OH) was 2.3 and 2.73 and 3.15.
Consider “Val^8-Lys^33-Asn^34-GLP-1(7-37)OH (peptide)”, for which the GLP-1 Receptor Activation (fold of GLP-1(7-37)OH) was 0.09.
With “Val^8-Trp^16-Glu^22-Ile^33-GLP-1(7-37)OH (peptide)”, the GLP-1 Receptor Activation (fold of GLP-1(7-37)OH) was determined as 1.93.
The same measure, in the same setting: the figure for “Val^8-Trp^16-Glu^22-Val^25-GLP-1(7-37)OH (peptide)” is 2.07.
